{"source": "patent US20150037868", "proteins": {"B1": {"name": "HRV 3C protease (codon-optimized for expression in E. coli), cytoplasmic (protein)", "chain": "MGPEEEFGMSLIKHNSCVITTENGKFTGLGVYDRFVVVPTHADPGKEIQVDGITTKVIDSYDLYNKNGIKLEITVLKLDRNEKFRDIRRYIPNNEDDYPNCNLALLANQPEPTIINVGDVVSYGNILLSGNQTARMLKYSYPTKSGYCGGVLYKIGQVLGIHVGGNGRDGFSAMLLRSYFTDVQ"}, "B2": {"name": "tobacco etch virus (TEV) protease (protein)", "chain": "GESLFKGPRDYNPISSTICHLTNESDGHTTSLYGIGFGPFIITNKHLFRRNNGTLLVQSLHGVFKVKNTTTLQQHLIDGRDMIIIRMPKDFPPFPQKLKFREPQREERICLVTTNFQTKSMSSMVSDTSCTFPSSDGIFWKHWIQTKDGQCGSPLVSTRDGFIVGIHSASNFTNTNNYFTSVPKNFMELLTNQEAQQWVSGWRLNADSVLWGGHKVFMSKPEEPFQPVKEATQLMNELVYSQ"}, "B3": {"name": "HRV 3C protease with an N-terminal OmpA leader sequence (periplasmic) (protein)", "chain": "GPEEEFGMSLIKHNSCVITTENGKFTGLGVYDRFVVVPTHADPGKEIQVDGITTKVIDSYDLYNKNGIKLEITVLKLDRNEKFRDIRRYIPNNEDDYPNCNLALLANQPEPTIINVGDVVSYGNILLSGNQTARMLKYSYPTKSGYCGGVLYKIGQVLGIHVGGNGRDGFSAMLLRSYFTDVQ"}}, "key": {"[1]": {"molecular_target": "Pgi-HRV-I526 (Pgi with HRV 3C recognition sequence inserted after amino acid 526)"}, "[2]": {"molecular_target": "T1, TktA variant with HRV protease cleavage motif inserted after amino acid 635", "T1 chain": "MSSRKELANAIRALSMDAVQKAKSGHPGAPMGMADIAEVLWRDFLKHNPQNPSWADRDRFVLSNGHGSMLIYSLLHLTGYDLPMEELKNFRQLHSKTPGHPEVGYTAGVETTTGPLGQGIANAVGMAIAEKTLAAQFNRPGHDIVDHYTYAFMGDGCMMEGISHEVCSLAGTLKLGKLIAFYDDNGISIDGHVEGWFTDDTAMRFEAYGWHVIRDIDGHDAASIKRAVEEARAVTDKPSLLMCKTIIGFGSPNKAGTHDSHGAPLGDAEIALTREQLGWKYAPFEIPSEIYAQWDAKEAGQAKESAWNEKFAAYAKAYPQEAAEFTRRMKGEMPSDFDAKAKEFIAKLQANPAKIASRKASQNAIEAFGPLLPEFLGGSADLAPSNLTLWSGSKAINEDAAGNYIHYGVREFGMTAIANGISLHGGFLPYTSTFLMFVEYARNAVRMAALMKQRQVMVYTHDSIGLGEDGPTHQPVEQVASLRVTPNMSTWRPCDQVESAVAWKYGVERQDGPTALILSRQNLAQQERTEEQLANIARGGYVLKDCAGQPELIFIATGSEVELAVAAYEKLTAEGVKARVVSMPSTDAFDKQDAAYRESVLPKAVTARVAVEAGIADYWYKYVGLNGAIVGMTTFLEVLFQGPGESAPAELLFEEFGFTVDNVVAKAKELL"}, "[3]": {"molecular_target": "T2, TktA variant with HRV protease cleavage motif inserted after amino acid 636", "T2 chain": "T1 chain with L636G, E637L, V638E, L639V, F640L, Q641F, G642Q, P643G, G644P"}, "[4]": {"molecular_target": "T3, TktA variant with HRV protease cleavage motif inserted after amino acid 637", "T3 chain": "T1 chain with L636G, V638L, L639E, F640V, Q641L, G642F, P643Q, E645P"}, "[5]": {"molecular_target": "T4, TktA variant with HRV protease cleavage motif inserted after amino acid 638", "T4 chain": "T1 chain with L636G, V638S, F640E, Q641V, G642L, P643F, G644Q, E645G, S646P"}, "[6]": {"molecular_target": "T5, TktA variant with HRV protease cleavage motif inserted after amino acid 640", "T5 chain": "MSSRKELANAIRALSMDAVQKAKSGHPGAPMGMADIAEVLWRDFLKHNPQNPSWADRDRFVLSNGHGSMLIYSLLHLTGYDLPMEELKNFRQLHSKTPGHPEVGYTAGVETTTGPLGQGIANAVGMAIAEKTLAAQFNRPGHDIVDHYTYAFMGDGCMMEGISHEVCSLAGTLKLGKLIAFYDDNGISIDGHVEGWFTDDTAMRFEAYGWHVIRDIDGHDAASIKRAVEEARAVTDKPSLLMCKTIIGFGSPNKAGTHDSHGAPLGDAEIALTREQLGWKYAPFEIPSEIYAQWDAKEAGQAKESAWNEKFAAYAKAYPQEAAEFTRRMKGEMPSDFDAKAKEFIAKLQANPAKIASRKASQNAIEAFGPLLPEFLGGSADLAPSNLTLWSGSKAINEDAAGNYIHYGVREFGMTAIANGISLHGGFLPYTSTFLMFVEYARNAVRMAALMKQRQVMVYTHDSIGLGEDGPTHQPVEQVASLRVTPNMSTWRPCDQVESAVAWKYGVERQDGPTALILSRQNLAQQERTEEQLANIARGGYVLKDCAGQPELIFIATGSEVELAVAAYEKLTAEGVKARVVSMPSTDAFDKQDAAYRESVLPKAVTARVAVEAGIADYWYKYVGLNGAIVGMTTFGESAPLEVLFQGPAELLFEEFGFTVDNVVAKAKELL"}, "[7]": {"molecular_target": "T6, wild-type TktA protein (transketolase A of Escherichia coli)", "T6 chain": "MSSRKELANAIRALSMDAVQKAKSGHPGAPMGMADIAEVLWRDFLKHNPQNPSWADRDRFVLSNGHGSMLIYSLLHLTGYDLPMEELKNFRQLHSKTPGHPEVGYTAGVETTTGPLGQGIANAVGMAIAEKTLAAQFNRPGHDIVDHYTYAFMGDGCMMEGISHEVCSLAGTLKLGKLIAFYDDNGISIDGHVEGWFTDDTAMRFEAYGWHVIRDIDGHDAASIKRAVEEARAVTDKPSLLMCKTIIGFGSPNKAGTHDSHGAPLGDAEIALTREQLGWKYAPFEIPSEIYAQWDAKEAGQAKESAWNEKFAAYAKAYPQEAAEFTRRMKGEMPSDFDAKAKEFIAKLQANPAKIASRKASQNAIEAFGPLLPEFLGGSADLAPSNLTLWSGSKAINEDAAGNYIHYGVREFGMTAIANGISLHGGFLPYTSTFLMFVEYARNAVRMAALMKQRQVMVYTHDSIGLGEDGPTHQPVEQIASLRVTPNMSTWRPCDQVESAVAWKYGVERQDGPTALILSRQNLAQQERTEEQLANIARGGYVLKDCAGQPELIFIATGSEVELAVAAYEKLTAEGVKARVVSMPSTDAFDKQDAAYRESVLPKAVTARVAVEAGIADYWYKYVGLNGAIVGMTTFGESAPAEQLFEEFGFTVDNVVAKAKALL"}}, "note": "Numbering of substitutions follows the chain as printed.", "data": [{"protein": "B1", "values": [{"measurement": "Pgi activity in clarified lysate after 2 h IPTG induction of cytoplasmic HRV 3C protease (pGLC221, no OmpA leader); no-protease strain 1.3 (µmol/min/mg total protein)", "setting": "[1]", "value": -0.01}, {"measurement": "growth rate in minimal glucose medium, HRV protease +inducer (2% arabinose, pGLC217); -inducer value 0.58", "setting": "[2]", "value": 0.47}, {"measurement": "growth rate in minimal glucose medium, HRV protease +inducer (2% arabinose, pGLC217); -inducer value 0.43", "setting": "[3]", "value": 0.17}, {"measurement": "growth rate in minimal glucose medium, HRV protease +inducer (2% arabinose, pGLC217); -inducer value 0.40", "setting": "[4]", "value": 0.11}, {"measurement": "growth rate in minimal glucose medium, HRV protease +inducer (2% arabinose, pGLC217); -inducer value 0.13", "setting": "[5]", "value": 0.08}, {"measurement": "growth rate in minimal glucose medium, HRV protease +inducer (2% arabinose, pGLC217); -inducer value 0.55", "setting": "[6]", "value": 0.34}, {"measurement": "growth rate in minimal glucose medium, HRV protease +inducer (2% arabinose, pGLC217); -inducer value 0.60", "setting": "[7]", "value": 0.57}]}, {"protein": "B2", "values": [{"measurement": "growth rate in minimal glucose medium, TEV protease control +inducer (2% arabinose, pGLC219); -inducer value 0.52", "setting": "[2]", "value": 0.52}, {"measurement": "growth rate in minimal glucose medium, TEV protease control +inducer (2% arabinose, pGLC219); -inducer value 0.39", "setting": "[3]", "value": 0.42}, {"measurement": "growth rate in minimal glucose medium, TEV protease control +inducer (2% arabinose, pGLC219); -inducer value 0.46", "setting": "[4]", "value": 0.46}, {"measurement": "growth rate in minimal glucose medium, TEV protease control +inducer (2% arabinose, pGLC219); -inducer value 0.18", "setting": "[5]", "value": 0.18}, {"measurement": "growth rate in minimal glucose medium, TEV protease control +inducer (2% arabinose, pGLC219); -inducer value 0.48", "setting": "[6]", "value": 0.52}, {"measurement": "growth rate in minimal glucose medium, TEV protease control +inducer (2% arabinose, pGLC219); -inducer value 0.55", "setting": "[7]", "value": 0.53}]}, {"protein": "B3", "values": [{"measurement": "Pgi activity in clarified lysate after 2 h IPTG induction of periplasmically sequestered HRV 3C protease (pGLC089, OmpA leader); no-protease strain 1.3 (µmol/min/mg total protein)", "setting": "[1]", "value": 0.01}]}]}
